Experimental data reported in the supplement of paper PMC9112550, “Optimization of the antimicrobial peptide Bac7 by deep mutational scanning” (BMC Biology, 2022).

These sequences were tested on Escherichia coli TOP10 (assay: shrunken log2 fold change of peptide-encoding DNA abundance (4.5 h post-induction vs induction); higher = less antimicrobial activity (less host growth inhibition)). Settings: time post-induction: 4.5 h; library: site-saturation at positions 5, 18, 19, 20.
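Also: peptides expressed intracellularly from a pBAD plasmid library in pooled LB shake-flask culture, induced with 0.3% L-arabinose, DNA abundance read by NGS, three biological replicates, DESeq2 with apeglm shrinkage.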

Going from RRIRSRPPRLPRPRPRPNYWPRP to RRIRLRPPRLPRPRPRPFTMPRP, the “shrunken log2 fold change” value falls from -0.143 to -0.764.

RRIRVRPPRLPRPRPRPWDCPRP and RRIRQRPPRLPRPRPRPDKPPRP are within 0.2 log units of each other in “shrunken log2 fold change” value: -0.0389 for the first, -0.214 for the second.

RRIRVRPPRLPRPRPRPVMVPRP and RRIRCRPPRLPRPRPRPDKAPRP are within 0.2 log units of each other in “shrunken log2 fold change” value: -0.166 for the first, -0.0544 for the second.

RRIRERPPRLPRPRPRPMNEPRP and RRIRTRPPRLPRPRPRPKQDPRP are within 0.2 log units of each other in “shrunken log2 fold change” value: -0.0835 for the first, 0.075 for the second.

First: RRIRRRPPRLPRPRPRPCAVPRP
Second: RRIRARPPRLPRPRPRPQTNPRP
The “shrunken log2 fold change” value of the first is lower: 0.0527 for the first, 0.36 for the second.

RRIRKRPPRLPRPRPRPFRIPRP and RRIRCRPPRLPRPRPRPRSCPRP are within 0.2 log units of each other in “shrunken log2 fold change” value: -0.0356 for the first, -0.159 for the second.

Going from RRIRRRPPRLPRPRPRPWNGPRP to RRIRYRPPRLPRPRPRPEDFPRP, the “shrunken log2 fold change” value rises from -0.346 to -0.00133.

First: RRIRTRPPRLPRPRPRPTGHPRP
Second: RRIRIRPPRLPRPRPRPPNNPRP
The “shrunken log2 fold change” value of the first is higher: 0.131 for the first, -0.637 for the second.

Going from RRIRNRPPRLPRPRPRPDPMPRP to RRIRNRPPRLPRPRPRPKYTPRP, the “shrunken log2 fold change” value falls from -0.177 to -0.63.

First: RRIRRRPPRLPRPRPRPDLAPRP
Second: RRIRMRPPRLPRPRPRPHRHPRP
The “shrunken log2 fold change” value of the first is higher: 0.197 for the first, -0.344 for the second.

Going from RRIRNRPPRLPRPRPRPPATPRP to RRIRRRPPRLPRPRPRPGQMPRP, the “shrunken log2 fold change” value falls from 0.615 to 0.0545.

First: RRIRSRPPRLPRPRPRPSQWPRP
Second: RRIRVRPPRLPRPRPRPVCAPRP
The “shrunken log2 fold change” value of the first is lower: -0.176 for the first, 0.413 for the second.

Going from RRIRDRPPRLPRPRPRPHHYPRP to RRIRRRPPRLPRPRPRPRCDPRP, the “shrunken log2 fold change” value rises from -0.0954 to 0.306.

Compared with RRIRSRPPRLPRPRPRPGQEPRP, RRIRWRPPRLPRPRPRPMWPPRP is higher in “shrunken log2 fold change” value: -0.0151 for the first, 0.214 for the second.

RRIRWRPPRLPRPRPRPNAPPRP and RRIRMRPPRLPRPRPRPTKSPRP are within 0.2 log units of each other in “shrunken log2 fold change” value: 0.328 for the first, 0.459 for the second.

Going from RRIRMRPPRLPRPRPRPAMPPRP to RRIRWRPPRLPRPRPRPPFFPRP, the “shrunken log2 fold change” value falls from 0.548 to 0.224.

First: RRIRQRPPRLPRPRPRPGSVPRP
Second: RRIRMRPPRLPRPRPRPQITPRP
The “shrunken log2 fold change” value of the first is higher: 0.241 for the first, -0.166 for the second.

Compared with RRIRFRPPRLPRPRPRPMFVPRP, RRIRLRPPRLPRPRPRPPMRPRP is higher in “shrunken log2 fold change” value: 0.109 for the first, 1 for the second.

RRIRTRPPRLPRPRPRPTAKPRP and RRIRLRPPRLPRPRPRPFFKPRP are within 0.2 log units of each other in “shrunken log2 fold change” value: -0.143 for the first, -0.169 for the second.

RRIRIRPPRLPRPRPRPPSKPRP and RRIRGRPPRLPRPRPRPDSKPRP are within 0.2 log units of each other in “shrunken log2 fold change” value: 0.147 for the first, 0.125 for the second.

Going from RRIRLRPPRLPRPRPRPRMIPRP to RRIRNRPPRLPRPRPRPSANPRP, the “shrunken log2 fold change” value falls from 0.119 to -0.379.

RRIRYRPPRLPRPRPRPCGDPRP and RRIRTRPPRLPRPRPRPDNRPRP are within 0.2 log units of each other in “shrunken log2 fold change” value: -0.0424 for the first, -0.0132 for the second.

First: RRIRNRPPRLPRPRPRPNIIPRP
Second: RRIRGRPPRLPRPRPRPQMMPRP
The “shrunken log2 fold change” value of the first is lower: -0.784 for the first, 0.112 for the second.

RRIRVRPPRLPRPRPRPHSAPRP and RRIRARPPRLPRPRPRPVSYPRP are within 0.2 log units of each other in “shrunken log2 fold change” value: -0.119 for the first, -0.133 for the second.

Going from RRIRHRPPRLPRPRPRPKPHPRP to RRIRERPPRLPRPRPRPDNIPRP, the “shrunken log2 fold change” value falls from 0.172 to -0.745.

Going from RRIRHRPPRLPRPRPRPMKYPRP to RRIRQRPPRLPRPRPRPLHDPRP, the “shrunken log2 fold change” value falls from -0.0485 to -0.346.

First: RRIRTRPPRLPRPRPRPSLQPRP
Second: RRIRSRPPRLPRPRPRPYWDPRP
The “shrunken log2 fold change” value of the first is higher: -0.0953 for the first, -0.321 for the second.

Compared with RRIRHRPPRLPRPRPRPCEPPRP, RRIRKRPPRLPRPRPRPWKAPRP is higher in “shrunken log2 fold change” value: 0.195 for the first, 0.49 for the second.

Compared with RRIRSRPPRLPRPRPRPYIQPRP, RRIRSRPPRLPRPRPRPCCPPRP is higher in “shrunken log2 fold change” value: -1.18 for the first, -0.0457 for the second.

Going from RRIRHRPPRLPRPRPRPWVIPRP to RRIRWRPPRLPRPRPRPRLAPRP, the “shrunken log2 fold change” value rises from 0.00302 to 0.84.

RRIRIRPPRLPRPRPRPMPRPRP and RRIRNRPPRLPRPRPRPEIPPRP are within 0.2 log units of each other in “shrunken log2 fold change” value: 0.0826 for the first, -0.113 for the second.

Going from RRIRNRPPRLPRPRPRPMWAPRP to RRIRNRPPRLPRPRPRPQPGPRP, the “shrunken log2 fold change” value rises from -0.0203 to 0.285.

Going from RRIRRRPPRLPRPRPRPKMTPRP to RRIRCRPPRLPRPRPRPSWYPRP, the “shrunken log2 fold change” value falls from 0.24 to -0.675.

First: RRIRMRPPRLPRPRPRPGWKPRP
Second: RRIRERPPRLPRPRPRPSLRPRP
The “shrunken log2 fold change” value of the first is higher: 0.0184 for the first, -0.313 for the second.

RRIRLRPPRLPRPRPRPMICPRP and RRIRPRPPRLPRPRPRPAIQPRP are within 0.2 log units of each other in “shrunken log2 fold change” value: 0.13 for the first, -0.00944 for the second.

Going from RRIRLRPPRLPRPRPRPLYDPRP to RRIRWRPPRLPRPRPRPWGIPRP, the “shrunken log2 fold change” value rises from -0.924 to 0.0114.

RRIRRRPPRLPRPRPRPDGTPRP and RRIRNRPPRLPRPRPRPGSIPRP are within 0.2 log units of each other in “shrunken log2 fold change” value: 0.0222 for the first, -0.00285 for the second.

First: RRIRERPPRLPRPRPRPNRKPRP
Second: RRIRARPPRLPRPRPRPECGPRP
The “shrunken log2 fold change” value of the first is lower: -0.0495 for the first, 1.23 for the second.

Going from RRIRIRPPRLPRPRPRPDNNPRP to RRIRTRPPRLPRPRPRPETMPRP, the “shrunken log2 fold change” value rises from -0.376 to 0.338.

Compared with RRIRLRPPRLPRPRPRPRPIPRP, RRIRMRPPRLPRPRPRPTEAPRP is lower in “shrunken log2 fold change” value: 0.384 for the first, 0.0796 for the second.

RRIRMRPPRLPRPRPRPMKMPRP and RRIRKRPPRLPRPRPRPAHPPRP are within 0.2 log units of each other in “shrunken log2 fold change” value: 0.803 for the first, 0.711 for the second.

Going from RRIRPRPPRLPRPRPRPNSIPRP to RRIRIRPPRLPRPRPRPDDHPRP, the “shrunken log2 fold change” value rises from -0.254 to 0.07.

Going from RRIRERPPRLPRPRPRPKICPRP to RRIRLRPPRLPRPRPRPLIRPRP, the “shrunken log2 fold change” value falls from 0.0135 to -0.547.

Going from RRIRCRPPRLPRPRPRPGYRPRP to RRIRDRPPRLPRPRPRPKKIPRP, the “shrunken log2 fold change” value rises from -0.682 to 0.0726.

Compared with RRIRKRPPRLPRPRPRPETMPRP, RRIRFRPPRLPRPRPRPFHKPRP is lower in “shrunken log2 fold change” value: 0.0612 for the first, -1.02 for the second.

Compared with RRIRDRPPRLPRPRPRPYTPPRP, RRIRDRPPRLPRPRPRPDVHPRP is higher in “shrunken log2 fold change” value: -0.95 for the first, 0.244 for the second.

First: RRIRTRPPRLPRPRPRPRVRPRP
Second: RRIRIRPPRLPRPRPRPMHRPRP
The “shrunken log2 fold change” value of the first is higher: 2.2 for the first, -0.262 for the second.

First: RRIRCRPPRLPRPRPRPAQNPRP
Second: RRIRRRPPRLPRPRPRPFKSPRP
The “shrunken log2 fold change” value of the first is higher: 0.586 for the first, -0.336 for the second.

RRIRVRPPRLPRPRPRPDSCPRP and RRIRLRPPRLPRPRPRPCRDPRP are within 0.2 log units of each other in “shrunken log2 fold change” value: -0.115 for the first, -0.211 for the second.

Compared with RRIRQRPPRLPRPRPRPFDAPRP, RRIRDRPPRLPRPRPRPPPEPRP is higher in “shrunken log2 fold change” value: -0.0632 for the first, 0.48 for the second.

RRIRERPPRLPRPRPRPYKIPRP and RRIRYRPPRLPRPRPRPSMYPRP are within 0.2 log units of each other in “shrunken log2 fold change” value: -0.266 for the first, -0.418 for the second.

First: RRIRKRPPRLPRPRPRPYNLPRP
Second: RRIRMRPPRLPRPRPRPKTDPRP
The “shrunken log2 fold change” value of the first is lower: -0.119 for the first, 1.32 for the second.

First: RRIRKRPPRLPRPRPRPPGIPRP
Second: RRIRSRPPRLPRPRPRPEAWPRP
The “shrunken log2 fold change” value of the first is higher: 0.279 for the first, 0.0495 for the second.

Compared with RRIRSRPPRLPRPRPRPKREPRP, RRIRVRPPRLPRPRPRPSYTPRP is lower in “shrunken log2 fold change” value: 0.393 for the first, -0.27 for the second.

RRIRQRPPRLPRPRPRPCQAPRP and RRIRNRPPRLPRPRPRPAFQPRP are within 0.2 log units of each other in “shrunken log2 fold change” value: -0.187 for the first, -0.0462 for the second.

RRIRRRPPRLPRPRPRPFCGPRP and RRIRIRPPRLPRPRPRPKRAPRP are within 0.2 log units of each other in “shrunken log2 fold change” value: 0.143 for the first, 0.283 for the second.

RRIRTRPPRLPRPRPRPKTTPRP and RRIRNRPPRLPRPRPRPIAPPRP are within 0.2 log units of each other in “shrunken log2 fold change” value: 0.0871 for the first, 0.0153 for the second.

Going from RRIRHRPPRLPRPRPRPRVCPRP to RRIRYRPPRLPRPRPRPRTQPRP, the “shrunken log2 fold change” value falls from 0.318 to 0.0444.

RRIRKRPPRLPRPRPRPAWWPRP and RRIRARPPRLPRPRPRPIVDPRP are within 0.2 log units of each other in “shrunken log2 fold change” value: 0.577 for the first, 0.543 for the second.

Compared with RRIRARPPRLPRPRPRPETGPRP, RRIRRRPPRLPRPRPRPIYDPRP is lower in “shrunken log2 fold change” value: 0.772 for the first, -0.0515 for the second.

RRIRIRPPRLPRPRPRPALEPRP and RRIRERPPRLPRPRPRPLMEPRP are within 0.2 log units of each other in “shrunken log2 fold change” value: -0.0629 for the first, 0.0296 for the second.

Going from RRIRERPPRLPRPRPRPLHNPRP to RRIRLRPPRLPRPRPRPQLHPRP, the “shrunken log2 fold change” value rises from -0.388 to -0.123.

For RRIRDRPPRLPRPRPRPHSCPRP, the “shrunken log2 fold change” value was -0.00804.
